From the nanobody polyreactivity screen of Harvey et al. (2022)

Assay: yeast display, Sf9 membrane polyspecificity reagent, FACS + sequencing; frameworks hold sequencing errors
Outline: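 Polyreactivity labels are assigned by the sorting gate from which each nanobody was recovered. The gates were low and high (top ~1%), set on anti-HA fluorescence for expression and streptavidin fluorescence for reagent binding. Before sorting, galactose-induced (36–48 hours) yeast display cells were stained for 1 hour at 4 °C with 10% biotinylated, detergent-solubilized Sf9 membrane reagent.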

Sequence | polyreactivity (PSR sort gate)
QVQLVESGGGLVQAGGSLRLSCAASGFTFRANGMGWYRQAPGKERELVATITSGGTTNYADSVKGRFTISRDNAKNSVYLQMNSLIPEDTAVYYCAKRFGPAYFRLYDYWGQGTQVTVSS | low polyreactivity
QVQLVESGGGLVQAGGSLRLSCAASGITFFRYAMGWYRQAPGKERELVATIRSGDRTYYADSVKGRFTISRDNAKNTVYLQMNSLKPEDTAVYYCAAYDNRYTIRPENYWGQGTQVTVSS | high polyreactivity
QVQLVESGGGLVQAGGSLRLSCAASGSTFWSYAMGWYRPAPGKERELVAAITSGGRTYYADSVKGRFTISRDNAKNTVYLQMNSLKPEDTAVYYCAAEGSVGLYGLIMHYWGQGTQVTVSS | high polyreactivity
QVQLVESGGGLVQAGGSLRLSCAASGSTFIFYAMGWYRQAPGKERELVAAISSGGITNYADSVKGRFTISRDNAKNTVYLQMNSLKPEDTAVYYCAKRKGPRWSRQYRYPYYSWGQGTQVTVSS | high polyreactivity
QVQLVESGGGLVQAGGSLRLSCAASGRIIAGYAMGLYRQAPGKERELVAAISSGGSTYYADSVKGRFTISRDNAKNTVYLQMNSLKPSDTAVYYCAAGGPRVYGTKFYYCGQGTQVTVSS | high polyreactivity
QVQLVESGGGLVQAGGSLRLSCASSGRIFSGYAMGSYRQAPAKERELVATITSGGGTYYADSVKGRFTISRDNAKNTVYFQMNSLKPEDTAVYYCNAEKKGSFRKYNYWGQGTQVTVSS | low polyreactivity
QDQHVESGGGLVQAGGSLRLSCAASGSTFDAYAMGWYRQAPGKERELVAAISWSDTTTYYADSVKGRFTISRDNAKNTVYLQMNSLKPEDTAVYYCADEYYFTEGSYTSDYWGQGTQVTVSS | high polyreactivity
QVQLVESGGGLVQAGGSLRLSCAASGIHFRSNAMGWYRQAPGKERELVAAISGRGGRTYYADSVKGRFTISRDNAKNTVYLQMNSLKPEDTAVYYCARESYLGATYPKAYGPYYYWGQGTQVTVSS | high polyreactivity
QVQLVESWGGVVQAGGSLRISCAASGFILARYAMGWYRQAPGKERELVAAIRRSGGGTYYADSVKGRFTISRDNAKYTVYLLMKSLKPEDTAVYYCNRDPTYLAYYINYDSWGQGTQVTVSS | high polyreactivity
QVQLQESGGGLVQAGGSLRLICAASGYISSWYPMGWYRQAPGKEREFVGTIAPGATTYYADSVKGRFTIIRDYEKNTVYLQMNSLKPEDTAVYYCAAGPENNDFYSYWGQGTQVTVSS | low polyreactivity
LVQLVESGGGLVQAGGSLRLSCAASGGTIVYYTMGWYRHAPGKERELVATIDNSDGSTYYADSVKGRFTISRDNAKNTVDLQMNSLKPEDTPVYYCSKSLPHSTSRDYWGQGTQLTVSS | low polyreactivity
QVQLVESGGGLVQAGGSLRLSCAASGFTFRSYAMGWYRQAPGKERELVAAISSGGSTYYADSVKGRFTISRDNAKNTVYLQMNSLKPEDTAVYYCAARRYYGYGHWGQGTQVNVSS | high polyreactivity
QVQLVESGGGLVQAGGSLRLSCAASGFSFRYYTMGWYRPAPGKERELVARITWSGRITDYADSVKGRFTISRDNPKNTVYLQMNSLKPEDTAVSYCNAERRWAAYDYCGQGTQVTVSS | high polyreactivity
HVQLVESGVGLVQAGGSLRLRCAASGRTLSVYAMGWYRQAPGKERELVAAITIRGGRTYYADSVKGRFTISRDNAKNTVYLQMNSLKPEDTAVYYCAAPPYVKMDYWGQGTQVTVSS | high polyreactivity
QVQLVESGGGLVQAGGSLRLSCAASGITFHYNAMGWYRQAPGKERELVAAISGSGSNTYYADSVKGRFTISRDNAKNTVYLQMNSLKPEDTAVYYCAKYYYSSNKWMDYWGQGTQVTVSP | high polyreactivity
QLQLQESGRGLVQAGGSLRLSCAASGNIVDADIMGWYRQAPGKERELVASITDGGSTNYADSVKGRFTISRDNAKNTVYLQMNSLKTEDTAVYYCAAIAYPVIPTYFDYDSEYFYWGQGTQVTVSS | low polyreactivity
QVQLVESGGGLVQAGGSLRLSCAASGRTFYYNAMGWYRQAPGKERELVATISWRGGNTYYADSVKGRFTISRDNAKNTVYLQMNSLKPEDTAVYYCNARTVGWKALTGKYDYWGQGTQVTVSS | high polyreactivity
QVQLVESGGGLVQAGGSLRLSCAASGTTFSGNAMGWYRQAPGKERELVAAITRSGSRTYYADSVKGRFTISRDNAKNTVYLQMHSLKPEDTAVYYCAKVGRTGDDYYYWGQGTQVTVSS | high polyreactivity
QVQLVESGGGLVQAGGSLRLSCAASGIIFSSYAMGWYRQAPGKERELVAAISLSGGSTYYADSVKGRFTISRDNAKNTVYLQMNSLKPEDTAVFYCNTVRQRARFTKVDYWGQGTQVTVSS | high polyreactivity
QVKLVESGGGLVQAGGSLRLSCGASGSIFRWYALGWYRQAPGKERELVAAIDYSGGSTYYADSVKGRFTISRDNAKNTVYLQMNSLKPEDTAVYYCAATAFYGGFLRYDYWGQGTQVTVSS | low polyreactivity
QVQLVESGGGLVQAGGSLRLSCAASGRTFLVYAMGWYRQAPGKERELVAAIRYSGSSTYADSVKGRFTISRDNAKNTVYLQMNSLKPEDTAVYDCNARRASYRSIYDYWGHGTQVTVSS | high polyreactivity
QVQLVESGGGLVQAGGSLRLSCAASGSIFVTNAMGWYRQAPGKEREMVATITSSGSTNYADSVKGRFTISRDNAKNTVYLQMNSLKPEDTAVYYCAKRWLWYYWGFAPSDYWGQGTQVTVSS | low polyreactivity
QVQLVESGGGLVQAGGSLRLSCAASGITFGNYAMGWYRQAPGKEREFVAAISQSYGRTYYADSVKGRFTISRDNAKNTVYLQMNSLKPEDTAVYYCAARTRGSSRGDYDYWGQGTQVTVSS | high polyreactivity
QVQLVESGGGLVQAGGSLRLSCAASGSIFGYYAMGWYRQAPGKEREFVAAIRSSGGSTYYADSVKGRFTISRDNAKNTVYLQMNSLKPEDTAVYYCAAGGYPTFFKYGYWGQGTQVTVSS | high polyreactivity
QVQLVESGGGVVQAGGSLRLSCAASGRTFMVNAMGWYRQAPGKERELVAAISQRGGSTDYADSVKGRFTISRDNAKNTVYLQMNSLIPEDTAVYYCAADSLRGSAPTYYSTLEYWGQGTQVTVSS | low polyreactivity
QVQLVESGGGLVQTGGSLRISCAASGSTFYYYAIGWYRQAAGKERELVAGISWGGGSTYYEDSVKGRFTISRDNAKNTVYLQMNSLKPEDTAVYYCNALNPKSYDYWGHGTQVTVSS | low polyreactivity
QVQLVESGGGLVQAGGSLRLSCAASGSTFVGNAMGWYRQAPGKERELVAGISSGGSSNYADSVKGRFTISRDNAKNTVYLQMNSLKREDTAVYYCNAVPGVGEMDYWGQGTQVTVSS | low polyreactivity
QVQLVESGGGLVQAGGSLRLSCAASGFTFDSNGMGWYRQAPGKERELVAAISTGGSTYYADSVKGRFTISRDNAKTTVYIPMNSLKPEDTPVYYCARDTPYPDTWYGYWGQGTQVTVSS | low polyreactivity
QVQLVESGGGLVQAGGSLRLSCAASGSIFTYYAMGWYRQAPGKERELVASISWGGGSTYYADSVKGRFTISRDNAKNSVYLQMNSLKPVDTAVYYCATDVYVDYFVGGEYWGQGTQVTVSS | low polyreactivity
QDQLVESGVGLVQAGGSLRLSCAASGFTFTRNAMGWYRQAPGKEREFVAAITRSGGSTYYADSVKGRFTISRDNAKNTVYLQMNSLKPEDTAVYYCAAEVSSFLYTPSYSTDDYWGQGTQVTVSS | high polyreactivity
